Results published in article PMC6168860, “Dual Role of a Viral Polymerase in Viral Genome Replication and Particle Self-Assembly” (mBio, 2018).
Numbering of substitutions follows the chain as printed. Numbers in names are those of the source.

B1: Pseudomonas phage Φ6 major capsid protein P1 (natural protein, UniProt P11126 1-769, looked up)
chain: MFNLKVKDLNGSARGLTQAFAIGELKNQLSVGALQLPLQFTRTFSASMTSELLWEVGKGNIDPVMYARLFFQYAQAGGALSVDELVNQFTEYHQSTACNPEIWRKLTAYITGSSNRAIKADAVGKVPPTAILEQLRTLAPSEHELFHHITTDFVCHVLSPLGFILPDAAYVYRVGRTATYPNFYALVDCVRASDLRRMLTALSSVDSKMLQATFKAKGALAPALISQHLANAATTAFERSRGNFDANAVVSSVLTILGRLWSPSTPKELDPSARLRNTNGIDQLRSNLALFIAYQDMVKQRGRAEVIFSDEELSSTIIPWFIEAMSEVSPFKLRPINETTSYIGQTSAIDHMGQPSHVVVYEDWQFAKEITAFTPVKLANNSNQRFLDVEPGISDRMSATLAPIGNTFAVSAFVKNRTAVYEAVSQRGTVNSNGAEMTLGFPSVVERDYALDRDPMVAIAALRTGIVDESLEARASNDLKRSMFNYYAAVMHYAVAHNPEVVVSEHQGVAAEQGSLYLVWNVRTELRIPVGYNAIEGGSIRTPEPLEAIAYNKPIQPSEVLQAKVLDLANHTTSIHIWPWHEASTEFAYEDAYSVTIRNKRYTAEVKEFELLGLGQRRERVRILKPTVAHAIIQMWYSWFVEDDRTLAAARRTSRDDAEKLAIDGRRMQNAVTLLRKIEMIGTTGIGASAVHLAQSRIVDQMAGRGLIDDSSDLHVGINRHRIRIWAGLAVLQMMGLLSRSEAEALTKVLGDSNALGMVVATTDIDPSL
notes: major capsid protein P1 of Pseudomonas phage Φ6, wild type; The shell holds 120 copies of P1 (60 asymmetric P1A/P1B dimers) by the introduction; In the recombinant PCs of a11 P1 was co-expressed from pLM687 in E. coli JM109; also called main structural P1 protein; P1 shell; source: E. coli JM109, P1P4 particles from plasmid pLM358, P1 purified as previously described
B2: Φ6 P2 surface mutant HER (histidine-tagged) (enzyme, Pseudomonas phage Φ6, UniProt P11124 1-665, looked up)
chain: MPRRAPAFPLSDIKAQMLFANNIKAQQASKRSFKEGAIETYEGLLSVDPRFLSFKNELSRYLTDHFPANVDEYGRVYGNGVRTNFFGMRHMNGFPMIPATWPLASNLKKRADADLADGPVSERDNLLFRAAVRLMFSDLEPVPLKIRKGSSTCIPYFSNDMGTKIEIAERALEKAEEAGNLMLQGKFDDAYQLHQMGGAYYVVYRAQSTDAITLDPKTGKFVSKDRMVADFEYAVTGGEQGSLFAASKDASRLKEQYGIDVPDGFFCERRRTAMGGPFALNAPIMAVAQPVRNKIYSKYAYTFHHTTRLNKEEKVKEWSLCVATDVSDHDTFWPGWLRDLICDELLNMGYAPWWVKLFETSLKLPVYVGAPAPEQGHTLLGDPSNPDLEVGLSSGQGATDLMGTLLMSITYLVMQLDHTAPHLNSRIKDMPSACRFLDSYWQGAQEIRQISKSDDAILGWTKGRALVGGHALFEMLKEGKVNPSPYMKISYEHGGAFLGDILLYDSRREPGSAIFVGNINSMLNNQFSPEYGVQSGVRDRSKRKRPFPGLAWASMKDTYGACPIYSDVLEAIERCWWNAFGESYRAYREDMLKRDTLELSRYVASMARQAGLAELTPIDLEVLADPNKLQYKWTEADVSANIHEVLMHGVSVEKTERFLRSVMPR
notes: RNA-dependent RNA polymerase P2 of Pseudomonas phage Φ6 with His443 to Ala, Glu444 to Gln and Arg470 to Ala, made from pEM33 (C-terminal hexahistidine tag); source: E. coli BL21(DE3), plasmid pXS29, purified as described for N-terminally histidine-tagged P2; not shown: His6, C-terminal, kept
B3: Φ6 P2 surface mutant HERW (histidine-tagged) (enzyme, Pseudomonas phage Φ6, UniProt P11124 1-665, looked up)
chain: B2 chain with W577A
notes: source: E. coli BL21(DE3), plasmid pXS30, purified as described for N-terminally histidine-tagged P2; not shown: His6, C-terminal, kept
B4: Φ6 P2 surface mutant W576A (histidine-tagged) (enzyme, Pseudomonas phage Φ6, UniProt P11124 1-665, looked up)
chain: B2 chain with A444H, Q445E, A471R, W577A
notes: RNA-dependent RNA polymerase P2 of Pseudomonas phage Φ6 with Trp576 to Ala, made from pEM33 (C-terminal hexahistidine tag); source: E. coli BL21(DE3), plasmid pXS28, purified as described for N-terminally histidine-tagged P2; not shown: His6, C-terminal, kept

Assays:
[1] = target: the molecule itself; experiment: co-sedimentation; in vitro self-assembly of purified P1 and P4 (120:72), no P2, no P7 (P1P4 reaction); room temperature, 90 min, 250 to 350 mM NaCl, 20 mM Tris pH 8.0, 6% PEG 4000, P1 about 0.2 mg/ml; rate-zonal centrifugation in 10% to 30% sucrose, light-scattering zones analysed by SDS-PAGE
[2] = target: B1; experiment: co-sedimentation; in vitro self-assembly of purified P1, P4 (120:72) and P2 or P2 variant at 10×P2 (P1:P2 120:120), no P7; room temperature, 90 min, 250 to 350 mM NaCl, 20 mM Tris pH 8.0, 6% PEG 4000; rate-zonal centrifugation in 10% to 30% sucrose, P2 copies per particle from SDS-PAGE; settings: both partners purified

| Binder | binding result [1] | copies of P2 variant per particle [2] [copies per particle] |
| --- | --- | --- |
| B1 | binds |  |
| B2 |  | 6 |
| B3 |  | 4 |
| B4 |  | 12 |
